Experimental findings from patent US20220403031A1 (WUXI BIOLOGICS IRELAND, published 2022) are described below.

Assay [1] concerns the target T1, hPD-L2.ECD.His (SinoBiological-10292-H08H) (human, UniProt Q9BQ51 20-220).
T1 construct: extracellular domain; His tag
T1 sequence (looked up): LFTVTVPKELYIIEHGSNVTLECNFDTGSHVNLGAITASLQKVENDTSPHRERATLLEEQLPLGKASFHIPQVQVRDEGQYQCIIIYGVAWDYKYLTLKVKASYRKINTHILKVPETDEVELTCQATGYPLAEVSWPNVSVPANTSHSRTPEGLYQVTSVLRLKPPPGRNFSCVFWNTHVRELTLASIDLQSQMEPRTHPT
The experiment in a line: ELISA on coated protein (1 ug/mL). The protocol: (§1) The plate was incubated at ambient temperature for 1 hour. The binding of the antibodies to the immobilized proteins was detected by HRP-labeled goat anti-human IgG antibody. The color was developed by dispensing 100 μL of TMB substrate, and then stopped by 100 μL of 2N HCl. The absorbance was read at 450 nm and 540 nm using a microplate spectrophotometer, respectively.
(ELISA stands for enzyme-linked immunosorbent assay.)

Assay [2] deals with T2, hCD80.ECD.His (SinoBiological-10698-H08H) (human, UniProt P33681 35-242).
T2 construct: extracellular domain; His tag
T2 sequence (looked up): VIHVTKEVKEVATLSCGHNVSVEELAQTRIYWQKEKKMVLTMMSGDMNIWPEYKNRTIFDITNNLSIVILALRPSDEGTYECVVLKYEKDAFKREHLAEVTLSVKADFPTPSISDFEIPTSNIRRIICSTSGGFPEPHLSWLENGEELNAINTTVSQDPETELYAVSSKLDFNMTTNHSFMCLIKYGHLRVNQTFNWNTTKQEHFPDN
The experiment in a line: ELISA on coated protein (1 ug/mL). The protocol:
as §1

The target of assay [3] is T3, hCD86.ECD.His (SinoBiological-10699-H08H) (human, UniProt P42081 24-247).
T3 construct: extracellular domain; His tag
T3 sequence (looked up): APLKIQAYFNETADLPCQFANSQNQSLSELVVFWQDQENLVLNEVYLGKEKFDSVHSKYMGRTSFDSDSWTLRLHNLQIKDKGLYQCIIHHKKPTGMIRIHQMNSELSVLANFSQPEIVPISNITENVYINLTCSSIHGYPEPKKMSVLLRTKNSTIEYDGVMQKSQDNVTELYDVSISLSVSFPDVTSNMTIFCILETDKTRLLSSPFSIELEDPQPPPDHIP
Put plainly: ELISA on coated protein (1 ug/mL). As for the experimental part: as §1

For another assay, the target named is human serum Albumin (human, UniProt P02768 25-609). The experiment in a line: non-specific binding ELISA, antigen coated at 2 ug/mL. The protocol: Non-specific binding ELISA was performed in 96-well high binding plates (Nunc-Immuno Plate, Thermo Scientific). The plate was coated with various antigens (as listed in the left column of Table 11) at 2 μg/mL overnight at 4° C. After blocking with 2% BSA-PBS, 10 μg/ml antibodies were added to the plate and incubated for 2 hours. […] The HRP signal was detected by adding TMB peroxidase substrate and the reaction was stopped after 12 minutes using 2M HCl. The absorbance at 450 nm was read using a microplate reader (Molecular Device). All incubation steps were performed at room temperature. The plate was washed with PBST (0.05% Tween20-PBS) between steps.

For assay [4], the target named is T4, cynomolgus monkey PD-L1 on 293F cells (W315-293F.cynoPro1.2A2) (cynomolgus monkey, UniProt G7PSE7 19-290).
T4 construct: whole, on cells; also called cell surface monkey PD-L1; cynoPD-L1
T4 sequence (G7PSE7 entry or part of it): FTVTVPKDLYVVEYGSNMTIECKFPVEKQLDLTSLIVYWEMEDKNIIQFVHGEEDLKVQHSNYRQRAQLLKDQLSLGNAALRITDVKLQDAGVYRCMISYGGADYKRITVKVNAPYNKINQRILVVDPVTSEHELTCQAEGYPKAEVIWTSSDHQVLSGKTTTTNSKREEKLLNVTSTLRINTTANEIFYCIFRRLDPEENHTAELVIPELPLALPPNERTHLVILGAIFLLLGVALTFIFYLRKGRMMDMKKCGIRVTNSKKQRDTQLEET
The experiment in a line: FACS affinity on cynomolgus PD-L1 cells, quantitative beads. The protocol:
Binding affinities of testing antibodies to cell surface human, cynomolgus and mouse PD-L1 were determined by flow cytometry on the engineering cell lines, respectively. The cells were transferred in to 96-well U-bottom plates (BD) at a density of 5×10⁴ cells/well. Antibodies to be tested were 1: 2-fold serially diluted in 1% BSA/1×PBS and incubated with cells at 4° C. for 1 hr. Then, the plates were centrifuged at 1500 rpm for 4 mins and the supernatant was discarded. The secondary antibody, Alexa647 conjugated goat anti-human IgG Fc (Jackson, Cat No. 109-605-098, Lot No. 121363), was added to re-suspend cells and incubated at 4° C. in the dark for 30 min. The cells were washed once and re-suspended in 100 μL 1% BSA/1×PBS, then measured by flow cytometry (BD Canto II) and analyzed by FlowJo. Fluorescence intensity was converted to bound molecules/cell based on the quantitative beads (Quantum™ MESF Kits, Bangs Laboratories). KD value was calculated by Graphpad Prism5.

For assay [5], the target named is T5, mouse PD-L1 on 293F cells (W315-293F.mPro1.C1) (mouse, UniProt Q9EP73 19-290).
T5 construct: whole, on cells; also called cell surface mouse PD-L1; Mouse PD-L1-expressing 293F cell
T5 sequence (Q9EP73 19-290): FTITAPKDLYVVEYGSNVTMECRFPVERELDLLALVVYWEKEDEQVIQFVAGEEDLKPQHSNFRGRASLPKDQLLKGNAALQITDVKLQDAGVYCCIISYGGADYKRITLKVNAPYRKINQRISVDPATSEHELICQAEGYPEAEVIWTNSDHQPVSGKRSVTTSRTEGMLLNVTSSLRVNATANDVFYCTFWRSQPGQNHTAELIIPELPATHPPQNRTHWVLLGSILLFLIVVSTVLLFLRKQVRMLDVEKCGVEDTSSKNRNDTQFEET
The experiment in a line: FACS competition: antibody titrated against 5 ug/mL mouse PD-1 ECD mFc on mouse PD-L1 293F cells. As for the experimental part: Mouse PD-L1 transfected W315-293F.mPro1.C1 cells were transferred into 96-well U-bottom plates at a density of 2×10⁵ cells/well. […] After washing with 1×PBS/1% BSA, the secondary antibody PE-labeled goat anti-mouse IgG was applied and incubated with cells at 4° C. for 1 hour. […] Human IgG1 and IgG4 isotype antibodies were used as negative control. The cells were then washed and resuspended in 1×PBS/1% BSA. MFI of the cells was measured by a flow cytometer (BD) and analyzed by FlowJo (version 7.6.1).

The target of assay [6] is T6, human PD-L1 on CHO-K1 cells (W315-CHO-K1.hPro1.C11) (human, UniProt Q9NZQ7 19-290).
T6 construct: whole, on cells; also called cell surface human PD-L1; Human PD-L1-expressing CHO-K1 cell
T6 sequence (Q9NZQ7 19-290): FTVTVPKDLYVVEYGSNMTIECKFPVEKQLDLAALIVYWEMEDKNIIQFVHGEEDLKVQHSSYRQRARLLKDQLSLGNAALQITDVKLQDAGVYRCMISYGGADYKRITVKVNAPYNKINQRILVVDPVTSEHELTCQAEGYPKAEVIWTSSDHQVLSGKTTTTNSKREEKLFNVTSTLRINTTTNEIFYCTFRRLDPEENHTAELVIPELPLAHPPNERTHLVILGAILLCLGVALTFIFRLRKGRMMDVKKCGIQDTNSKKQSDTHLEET
Put plainly: FACS competition: antibody titrated against 5 ug/mL human PD-1 ECD mFc on human PD-L1 CHO-K1 cells. The protocol:
Human PD-L1 transfected W315-CHO-K1.hPro1.C11 cells were transferred into 96-well U-bottom plates at a density of 1×10⁵ cells/well. […] After washing with 1×PBS/1% BSA, the secondary antibody PE-labeled goat anti-mouse IgG was applied and incubated with cells at 4° C. for 1 hour. […] Human IgG1 and IgG4 isotype antibodies were used as negative control. The cells were then washed and resuspended in 1×PBS/1% BSA. MFI of the cells was measured by a flow cytometer (BD) and analyzed by FlowJo (version 7.6.1).

B1: AP3R2-1A3-z12-hIgG1 (Fc fusion)
chain: EVQLVESGGGLVQPGGSLRLSCAASGHFSNLAVNWFRQAPGKERELVAGILWSGGSTFYADSVKGRFTISRGNAENMLYLQMNSLRAEDTAVYYCNTGTNWGQGTLVTVSS
notes: VHH-Fc (hIgG1) fusion of the humanized VHH; also called W3156-AP3R2-1A3-z12-hIgG1; W3156 antibody; not shown: Fc of human IgG1
By Kd is commonly meant the free concentration of one partner at which half of the binding sites on the other are occupied at equilibrium, for simple one-to-one binding. One may read the IC50 as the midpoint of a concentration-inhibition curve. Turning to B1, the binding result is listed as “no binding (tested: 66.7 nM)” in assay [1], “no binding (tested: 66.7 nM)” in assay [2], “no binding (tested: 66.7 nM)” in assay [3] and “no binding (tested: 10 µg/ml)” with human serum Albumin. Binding in assay [4] was characterised by a dissociation constant (Kd) of 7.3 nM. Moreover, the results for the IC50 in assay [5] and in assay [6] were 2.14 nM and 0.871 nM, respectively.
